This sample holds only a part of the variants without activity.
B1: TPR 5TU (parent)
chain: GGAUCUUCUCGAUCUAACAAAAAAGACAAAUCUGCCACAAAGCUUGAGAGCAUCUUCGGAUGCAGAGGCGGCAGCCUUCGGUGGCGCGAUAGCGCCAACGUUCUCAACUAUGACACGCAAAACGCGUGCUCCGUUGAAUGGAGUUUAUCAUG

Variants of: B1
Assay: polymerase ribozyme fitness, log enrichment relative to wild type (log ratio); higher = more active; in vitro selection for triplet polymerase activity
How it was run: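 Genotype fitness is the logarithm of its enrichment divided by wild-type enrichment, using inverse-variance-weighted averages of replicates. That logarithm is base 2. Enrichment was measured by Illumina sequencing of input and output libraries from one triplicate in vitro selection round, with frozen incubation at −7 °C, on PCR-built, transcribed mutant libraries of each subunit of a heterodimeric triplet polymerase ribozyme, retaining genotypes with ≥10 input reads and ≥1 read per output.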

Variant | polymerase ribozyme fitness (log ratio)
A12C C85U A142U | -1.48
A12C A30U A37U A49U C57U U90G A91U A107U | ≤ -4.2
G11A A37C U56G G83A U145G | -3.73
G11U C18G G58C A60C U78C G83A C96U A115C | ≤ -4.2
A12C A29U A66G U101G C131G | ≤ -4.2
A12C G59A G84A C118U A121G A122C G126U | -3.86
A12G A20U A29U U53G A66C | -4.16
G11C G59A A73G U82G | -2.2
G11C C63U C85U G86U C114U | ≤ -4.2
G11C C51U C85U G140C | ≤ -4.2
G11C A22U A30G A37C A91G C93A A98C C118G | ≤ -4.2
A12C A64G C85A G100C | ≤ -4.2
A12C C14A A29G G81A A91G C93U C103A | ≤ -4.2
A12G C35U U56C C57G G58U A60G | -0.194
A12C A47U U55A | -1.41
G11U A37U C87A | -4.14
A12C A37C C72A U90G U101A C103U A138G A142U | ≤ -4.2
G11A C43G U90C G94A | -4.13
G11U C51U A113U C132A U139G U146A | ≤ -4.2
A12C G62A A122U | -0.923
G11A A40C A49C G74C C85A C95G G100C A147U | ≤ -4.2

Variant | polymerase ribozyme fitness (log ratio)
G11A U134A | -3.6
G11C A39U A73U C96U | ≤ -4.2
A12C A17G U31G U44A C93U C99U A122C U134A A142G | ≤ -4.2
G11U A40U G42C G84C G100U A107U U134G | ≤ -4.2
A12G A21C C32G G50U C125G | ≤ -4.2
G11A C14G A19U C27A U31C C118G | ≤ -4.2
A12G C51U | 0.193
A12C A16U C87G | ≤ -4.2
G11C G25C A28G C36G C75U C96U A115U A122U | -3.98
A12C A40G A41U A52C C54U A66G C95U | ≤ -4.2
G11A G67A C79G C87A C114G A137G | ≤ -4.2
G11U A19C U55A G71A A91C G100A U109G A122U | ≤ -4.2
G11U C96G | -1.31
G11U C103G C123G | -2.44
A12C A23C C54A G81U G92C C99A | ≤ -4.2
A12C U15A U56A | -0.709
A12C G58C C96G | -1.07
G11U G74U G81U G88C A89G C95U G128U U148A | ≤ -4.2
A12C C27U G34U C63U C93A | -4.1
A12G C14G A52C G67A G124A A137C | ≤ -4.2
G11A G94U A113C C114U A122C G143U C149U | ≤ -4.2

Variant | polymerase ribozyme fitness (log ratio)
G11A G25C G50A A52G C75G U90G C103U U144A | ≤ -4.2
A12G C36A U55G G94A G141C U148G | ≤ -4.2
A12C C32G G84U | ≤ -4.2
G11U A19U C32U U33C G74A C85U G141U C149A | ≤ -4.2
G11C U61A G67A G94C U145G A147U | ≤ -4.2
G11C C14G C93U C125A | ≤ -4.2
A12C A21G C51U G83U | -2.15
G11A C14U U33G U44A C69A C79A C85U A97U | ≤ -4.2
G11C A115C | -2.86
A12C A98G | -0.18
G11A A39G C54G C87U C96G | ≤ -4.2
G11A G58U C96U | -1.58
G11C G50A G92U G143A | -4.01
G11U A41U C93U C99A U104G C118U G140U G152U | -4.02
A12G A20G A60G | -0.113
G11C A91U | -4.11
A12G A41G C85G A106G | -1.5
A12G A22C A66U C69U G92A | ≤ -4.2
G11A A26C C27G C35U C87A G124A | -4.15
A12G A26G G94C C95A A137G | -4
G11C C38U C85G U135C | ≤ -4.2

Variant | polymerase ribozyme fitness (log ratio)
A12C A26C G92C | -3.66
A12C U101G A137G | -0.888
G11U C93U A119C C149U | -3.06
G11U C32U G84A C85A C105U C132U U139G U151G | -4.14
A12C U15C A40U C99G | -0.411
G11A C125U U139G | -2.67
G11C G46C C57U C85U | -3.93
A12G C14G A97U | -2.49
G11A A23U U53A G92U C108U A142U | ≤ -4.2
A12C A22G C32G C51G A60U U77A G81C G128A U148C | ≤ -4.2
A12G A30G | -2.97
A12G A17G C93U A120G | -0.897
A12C A19C U45G G84U A142C | ≤ -4.2
G11C A23G A91G C95U A121G | -3.82
A12G A23C G25A A41G G94C C96U C116U G143C | ≤ -4.2
A12G C14G G92C | -2.86
A12G A29U U44C G50C A91C C93G G94C C116U U144A | ≤ -4.2
G11C G74A C76U C93G A113G U145A | ≤ -4.2
A12G A39U G42C C57A G59C C79A U134A | ≤ -4.2
A12G C14U G50A U53A C95U C99A C116U A150U | -4.15

Source: the RNAGym collection of RNA variant scans (doi:10.1073/pnas.2313332121)
